{"source": "the RNAGym collection of RNA variant scans (doi:10.7554/elife.80360)", "parents": {"B1": {"name": "HDV Ribozyme (parent)", "chain": "GGCCGGCAUGGUCCCAGCCUCCUCGCUGGCGCCGGCUGGGCAACAUUCCGAGGGGACCGUCCCCUCGGUAAUGGCGAAUGGGACCCA"}}, "data": [{"variants_of": "B1", "assay": "self-cleavage, relative activity (ratio to wild type); higher = more cleavage; co-transcriptional", "values": [{"variant": "C24A G39U", "self-cleavage": 0.211}, {"variant": "C24A G29U", "self-cleavage": 0.0369}, {"variant": "U23G G39C", "self-cleavage": 0.158}, {"variant": "G25U G82U", "self-cleavage": 0.0252}, {"variant": "G25U C41G", "self-cleavage": 0.119}, {"variant": "G25A U69G", "self-cleavage": 0.233}, {"variant": "G25A U69A", "self-cleavage": 0.222}, {"variant": "C24A C62A", "self-cleavage": 0.946}, {"variant": "C24A C62U", "self-cleavage": 0.89}, {"variant": "C24A U60A", "self-cleavage": 0.535}, {"variant": "C24U G73C", "self-cleavage": 0.0773}, {"variant": "C24U C41G", "self-cleavage": 0.437}, {"variant": "C24U C41U", "self-cleavage": 0.616}, {"variant": "U23C G52C", "self-cleavage": 1.01}, {"variant": "C24U A42U", "self-cleavage": 0.17}, {"variant": "C24U A42C", "self-cleavage": 0.125}, {"variant": "G25C G68A", "self-cleavage": 0.227}, {"variant": "U23G G67C", "self-cleavage": 0.59}, {"variant": "U23G A42C", "self-cleavage": 0}, {"variant": "U23G G59U", "self-cleavage": 0.886}, {"variant": "U23G G73U", "self-cleavage": 0.0604}, {"variant": "U23G G73A", "self-cleavage": 0.259}, {"variant": "U23G G73C", "self-cleavage": 0.0773}, {"variant": "G25U G80U", "self-cleavage": 0.115}, {"variant": "C24G C86U", "self-cleavage": 0.17}, {"variant": "U23G U72C", "self-cleavage": 0.391}, {"variant": "G25C U69C", "self-cleavage": 0.175}, {"variant": "G25A A70C", "self-cleavage": 0.138}, {"variant": "G25A A70U", "self-cleavage": 0.17}, {"variant": "U23C G59A", "self-cleavage": 1.19}, {"variant": "U23G C85U", "self-cleavage": 0.898}, {"variant": "U23G C85G", "self-cleavage": 0.643}, {"variant": "C24U G28A", "self-cleavage": 0.172}, {"variant": "C24U G28C", "self-cleavage": 0.0475}, {"variant": "G25C G54C", "self-cleavage": 0.138}, {"variant": "G25U G34C", "self-cleavage": 0.0396}, {"variant": "G25U G34A", "self-cleavage": 0.0573}, {"variant": "U23G C58A", "self-cleavage": 0.877}, {"variant": "U23C U60C", "self-cleavage": 0.858}, {"variant": "U23C U60A", "self-cleavage": 0.877}, {"variant": "C24U C26U", "self-cleavage": 0.867}, {"variant": "C24U C26G", "self-cleavage": 0.615}, {"variant": "C24A C84G", "self-cleavage": 0.563}, {"variant": "U23C G73A", "self-cleavage": 0.525}, {"variant": "U23C G73U", "self-cleavage": 0.148}, {"variant": "U23C G73C", "self-cleavage": 0.269}, {"variant": "G25U C64A", "self-cleavage": 0.151}, {"variant": "U23G A87C", "self-cleavage": 0.799}, {"variant": "C24U G82A", "self-cleavage": 0.107}, {"variant": "G25U G55A", "self-cleavage": 0.201}, {"variant": "G25A C44G", "self-cleavage": 0.0923}, {"variant": "G25C G82A", "self-cleavage": 0.0361}, {"variant": "G25U A78G", "self-cleavage": 0.185}, {"variant": "G25U A78C", "self-cleavage": 0.0665}, {"variant": "G25U A78U", "self-cleavage": 0.0831}, {"variant": "C24G U69A", "self-cleavage": 0.204}, {"variant": "U23G G76A", "self-cleavage": 0.895}, {"variant": "C24A A70G", "self-cleavage": 0.804}, {"variant": "U23G A56U", "self-cleavage": 0.759}, {"variant": "U23G G34A", "self-cleavage": 0.0811}, {"variant": "G25U C48U", "self-cleavage": 0.102}, {"variant": "G25C A43U", "self-cleavage": 0.147}, {"variant": "G25C A43G", "self-cleavage": 0}, {"variant": "U23G G50U", "self-cleavage": 0.607}, {"variant": "G25C G80A", "self-cleavage": 0.0744}, {"variant": "U23C G39A", "self-cleavage": 0.519}, {"variant": "G25A C66G", "self-cleavage": 0.376}, {"variant": "C24A G81U", "self-cleavage": 0.185}, {"variant": "U23G A77G", "self-cleavage": 0.554}, {"variant": "U23C G53A", "self-cleavage": 0.849}, {"variant": "G25C U65G", "self-cleavage": 0.0875}, {"variant": "C24U C84U", "self-cleavage": 0.53}, {"variant": "U23G", "self-cleavage": 0.731}, {"variant": "G25A G73C", "self-cleavage": 0.113}, {"variant": "C24U G40A", "self-cleavage": 0.701}, {"variant": "C24U G40U", "self-cleavage": 0.337}, {"variant": "G25A U47A", "self-cleavage": 0.0831}, {"variant": "G25A U47G", "self-cleavage": 0.32}, {"variant": "C24A C61A", "self-cleavage": 0.906}, {"variant": "G25C G50A", "self-cleavage": 0.0354}, {"variant": "G25C G50U", "self-cleavage": 0.0811}, {"variant": "G25A G82C", "self-cleavage": 0.089}, {"variant": "U23G G31C", "self-cleavage": 0.178}, {"variant": "C24G U60C", "self-cleavage": 0.277}, {"variant": "C24G U60A", "self-cleavage": 0.264}, {"variant": "G25C G74U", "self-cleavage": 0.108}, {"variant": "G25A U37G", "self-cleavage": 0.104}, {"variant": "G25C U37A", "self-cleavage": 0.0426}, {"variant": "C24G A45U", "self-cleavage": 0.0504}, {"variant": "C24G A42U", "self-cleavage": 0}, {"variant": "C24G A42G", "self-cleavage": 0.185}, {"variant": "G25U A83C", "self-cleavage": 0.0386}, {"variant": "G25U G38A", "self-cleavage": 0.0511}, {"variant": "C24A U47A", "self-cleavage": 0.554}, {"variant": "G25C U46A", "self-cleavage": 0}, {"variant": "U23G C84A", "self-cleavage": 0.712}, {"variant": "G25C A78U", "self-cleavage": 0.131}, {"variant": "U23G C44U", "self-cleavage": 0.325}, {"variant": "G25U G50A", "self-cleavage": 0.151}, {"variant": "G25U G50C", "self-cleavage": 0.136}, {"variant": "G25A C33A", "self-cleavage": 0.0863}, {"variant": "G25A C33G", "self-cleavage": 0.0228}, {"variant": "C24A C36G", "self-cleavage": 0.0678}, {"variant": "C24A C36U", "self-cleavage": 0.254}, {"variant": "U23C G67C", "self-cleavage": 0.969}, {"variant": "U23G G74C", "self-cleavage": 0.188}, {"variant": "U23G G74U", "self-cleavage": 0.0863}, {"variant": "C24A A56C", "self-cleavage": 0.966}, {"variant": "C24A A56U", "self-cleavage": 0.872}, {"variant": "U23G C41G", "self-cleavage": 0.597}, {"variant": "G25C G38U", "self-cleavage": 0.0791}, {"variant": "G25C G38C", "self-cleavage": 0.119}, {"variant": "C24A G34A", "self-cleavage": 0.166}, {"variant": "C24A G34C", "self-cleavage": 0.0852}, {"variant": "C24A G59A", "self-cleavage": 0.842}, {"variant": "U23C U27C", "self-cleavage": 0.65}, {"variant": "G25A G39A", "self-cleavage": 0.172}, {"variant": "G25A A42C", "self-cleavage": 0.0462}, {"variant": "G25U G54C", "self-cleavage": 0.122}, {"variant": "C24U G59C", "self-cleavage": 0.845}, {"variant": "C24U G74U", "self-cleavage": 0.143}, {"variant": "G25C A87C", "self-cleavage": 0.07}, {"variant": "G25C A87U", "self-cleavage": 0.0773}, {"variant": "C24G G31C", "self-cleavage": 0.0563}, {"variant": "U23G G29A", "self-cleavage": 0}, {"variant": "U23C G38U", "self-cleavage": 0.175}, {"variant": "G25U C36U", "self-cleavage": 0.218}, {"variant": "G25A G29A", "self-cleavage": 0.0567}, {"variant": "C24G C44A", "self-cleavage": 0.0297}, {"variant": "C24G C44U", "self-cleavage": 0.0978}, {"variant": "G25A C84G", "self-cleavage": 0.17}, {"variant": "G25C C49A", "self-cleavage": 0.0594}, {"variant": "U23G C75U", "self-cleavage": 0.089}, {"variant": "C24A A78C", "self-cleavage": 0.133}, {"variant": "U23G U65G", "self-cleavage": 0.674}, {"variant": "C24A C85A", "self-cleavage": 0.591}, {"variant": "G25A G31C", "self-cleavage": 0.0739}, {"variant": "U23G G25C", "self-cleavage": 0}, {"variant": "U23G C64G", "self-cleavage": 0.95}, {"variant": "U23G C26A", "self-cleavage": 0.739}, {"variant": "C24G C63G", "self-cleavage": 0.217}, {"variant": "G25C U60G", "self-cleavage": 0.101}, {"variant": "G25U C33U", "self-cleavage": 0.0831}, {"variant": "G25U C33A", "self-cleavage": 0.156}, {"variant": "C24A A42C", "self-cleavage": 0.0639}, {"variant": "U23G G82A", "self-cleavage": 0.0449}, {"variant": "U23G G82U", "self-cleavage": 0.17}, {"variant": "G25U C86G", "self-cleavage": 0.256}, {"variant": "G25U C86U", "self-cleavage": 0.108}, {"variant": "G25U C86A", "self-cleavage": 0.102}, {"variant": "C24G G53C", "self-cleavage": 0.0817}, {"variant": "C24G G53A", "self-cleavage": 0.18}, {"variant": "C24A A71C", "self-cleavage": 0.38}, {"variant": "C24A A71U", "self-cleavage": 0.731}, {"variant": "C24A A71G", "self-cleavage": 0.61}, {"variant": "C24A C41G", "self-cleavage": 0.536}, {"variant": "C24A C44A", "self-cleavage": 0.217}, {"variant": "U23G U79C", "self-cleavage": 0.125}, {"variant": "U23G U79G", "self-cleavage": 0.192}, {"variant": "C24A U69C", "self-cleavage": 0.712}, {"variant": "C24A U69G", "self-cleavage": 0.623}, {"variant": "G25U C26G", "self-cleavage": 0.816}, {"variant": "G25U C26U", "self-cleavage": 0.0415}, {"variant": "C24G G81C", "self-cleavage": 0.032}, {"variant": "U23G C32U", "self-cleavage": 0.6}, {"variant": "U23G C32A", "self-cleavage": 0.0652}, {"variant": "G25C A51U", "self-cleavage": 0.148}]}]}
